According to paper PMC11167000 (2024):
No end group written: not given here.

T1: human Growth Differentiation Factor 5 (GDF5, A382–R501) (human, UniProt P43026 382-501)
T1 chain: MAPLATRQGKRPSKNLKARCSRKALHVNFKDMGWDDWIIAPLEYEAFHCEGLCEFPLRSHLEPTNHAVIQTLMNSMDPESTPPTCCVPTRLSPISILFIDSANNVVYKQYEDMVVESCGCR

T2: human BMP2 (human, UniProt P12643 283-396)
T2 chain: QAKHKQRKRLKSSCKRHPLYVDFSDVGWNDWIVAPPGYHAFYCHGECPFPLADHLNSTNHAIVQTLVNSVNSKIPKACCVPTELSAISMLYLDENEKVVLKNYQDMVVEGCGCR

T3: human BMP7 (human, UniProt P18075 293-431)
T3 chain: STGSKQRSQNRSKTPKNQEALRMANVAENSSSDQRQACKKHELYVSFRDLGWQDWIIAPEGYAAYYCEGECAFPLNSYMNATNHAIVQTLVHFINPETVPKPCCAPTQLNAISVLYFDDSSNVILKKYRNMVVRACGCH


Key:
[1] = biological target: T1, human Growth Differentiation Factor 5 …; assay: SPR; 2 mM CaCl2; replicate 2
human BMP2 [2] = biological target: T2, human BMP2; assay: SPR; 2 mM CaCl2; replicate 2
human BMP7 [3] = biological target: T3, human BMP7; assay: SPR; 2 mM CaCl2; replicate 2
[4] = biological target: T1, human Growth Differentiation Factor 5 …; assay: SPR; 2 mM EDTA; replicate 2
human BMP2 [5] = biological target: T2, human BMP2; assay: SPR; 2 mM EDTA; replicate 2
human BMP7 [6] = biological target: T3, human BMP7; assay: SPR; 2 mM EDTA; replicate 2
[7] = biological target: T1, human Growth Differentiation Factor 5 …; assay: SPR; 2 mM EDTA; replicate 1
human BMP2 [8] = biological target: T2, human BMP2; assay: SPR; 2 mM EDTA; replicate 1
human BMP7 [9] = biological target: T3, human BMP7; assay: SPR; 2 mM EDTA; replicate 1
[10] = biological target: T1, human Growth Differentiation Factor 5 …; assay: SPR; 2 mM CaCl2; replicate 1
human BMP2 [11] = biological target: T2, human BMP2; assay: SPR; 2 mM CaCl2; replicate 1
human BMP7 [12] = biological target: T3, human BMP7; assay: SPR; 2 mM CaCl2; replicate 1
human BMP7 [13] = biological target: T3, human BMP7; assay: SPR; Ca; replicate 2
human BMP7 [14] = biological target: T3, human BMP7; assay: SPR; Ca; replicate 1
[15] = biological target: T1, human Growth Differentiation Factor 5 …; assay: SPR; Ca; replicate 1
[16] = biological target: T1, human Growth Differentiation Factor 5 …; assay: SPR; Ca; replicate 2
human BMP2 [17] = biological target: T2, human BMP2; assay: SPR; Ca; replicate 1
human BMP2 [18] = biological target: T2, human BMP2; assay: SPR; Ca; replicate 2

Kd [1] [nM]	Kd (human BMP2 [2]) [nM]	Kd (human BMP7 [3]) [nM]	Kd [4] [nM]	Kd (human BMP2 [5]) [nM]	Kd (human BMP7 [6]) [nM]	Kd [7] [nM]	Kd (human BMP2 [8]) [nM]	Kd (human BMP7 [9]) [nM]	Kd [10] [nM]	Kd (human BMP2 [11]) [nM]	Kd (human BMP7 [12]) [nM]	Kd (human BMP7 [13]) [nM]	Kd (human BMP7 [14]) [nM]	Kd [15] [nM]	Kd [16] [nM]	Kd (human BMP2 [17]) [nM]	Kd (human BMP2 [18]) [nM]	Binder
2840	1650	5740	4010	9540	12800	4720	8140	13500	4550	2120	2940							BMPR1B (receptor) KKEDGESTAPTPRPKVLRCKCHHHCPEDSVNNICSTDGYCFTMIEEDDSGLPVVTSGCLGLEGSDFQCRDTPIPHQRRSIECCTERNECNKDLHPTLPPLKNRDFVDGPIHHR
												557	247	121	60.6	943	771	TWSG1 NTD Asp34Ala (protein, disulfide (positions not given here); also: 7 disulfides in NTD, pairing not given here) CNKALCASAVSKCLIQELCQCRPGEGNCSCCKECMLCLGALWDECCDCVGMCNPRNYS
